Data published in US20210208163A1.

Target: recombinant mouse integrin αvβ3 (R&D Systems, 7889-AV-050) (mouse) (UniProt P43406)
Assay: SPR, mutant ICOSL immobilised, αvβ3 as analyte, 0.2 mM Ca2+ and 0.1 mM Mg2+, steady-state affinity fit

recombinant mouse integrin αvβ3 (R&D Systems, 7889-AV-050) (mouse), sequence (P43406 31-988 limits assumed, chain 1 of 2): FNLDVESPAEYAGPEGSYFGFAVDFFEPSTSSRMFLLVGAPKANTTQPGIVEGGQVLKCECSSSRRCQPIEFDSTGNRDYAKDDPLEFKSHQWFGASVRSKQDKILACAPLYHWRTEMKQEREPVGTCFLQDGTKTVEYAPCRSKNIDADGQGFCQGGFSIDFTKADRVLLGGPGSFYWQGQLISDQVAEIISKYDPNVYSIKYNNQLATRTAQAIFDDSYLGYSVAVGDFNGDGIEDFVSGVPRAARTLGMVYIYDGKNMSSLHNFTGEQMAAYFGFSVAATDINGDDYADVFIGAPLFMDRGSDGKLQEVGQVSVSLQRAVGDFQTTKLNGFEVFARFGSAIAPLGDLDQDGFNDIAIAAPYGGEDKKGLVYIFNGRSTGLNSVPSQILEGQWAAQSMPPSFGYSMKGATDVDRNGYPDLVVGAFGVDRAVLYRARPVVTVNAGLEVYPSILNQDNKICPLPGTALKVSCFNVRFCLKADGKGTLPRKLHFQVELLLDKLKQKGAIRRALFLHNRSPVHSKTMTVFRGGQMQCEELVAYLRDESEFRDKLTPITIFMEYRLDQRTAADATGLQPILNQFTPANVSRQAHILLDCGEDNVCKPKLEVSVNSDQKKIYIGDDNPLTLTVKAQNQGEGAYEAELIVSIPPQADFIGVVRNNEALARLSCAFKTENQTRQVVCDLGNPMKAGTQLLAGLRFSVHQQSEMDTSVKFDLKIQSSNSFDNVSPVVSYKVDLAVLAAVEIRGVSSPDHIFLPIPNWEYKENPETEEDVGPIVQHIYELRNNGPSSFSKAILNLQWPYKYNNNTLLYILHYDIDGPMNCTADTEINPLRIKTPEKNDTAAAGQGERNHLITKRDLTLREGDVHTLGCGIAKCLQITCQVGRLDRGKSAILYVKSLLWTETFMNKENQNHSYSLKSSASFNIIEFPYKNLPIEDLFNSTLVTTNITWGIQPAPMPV
recombinant mouse integrin αvβ3 (R&D Systems, 7889-AV-050) (mouse), sequence (O54890 26-717 limits assumed, chain 2 of 2, further chain): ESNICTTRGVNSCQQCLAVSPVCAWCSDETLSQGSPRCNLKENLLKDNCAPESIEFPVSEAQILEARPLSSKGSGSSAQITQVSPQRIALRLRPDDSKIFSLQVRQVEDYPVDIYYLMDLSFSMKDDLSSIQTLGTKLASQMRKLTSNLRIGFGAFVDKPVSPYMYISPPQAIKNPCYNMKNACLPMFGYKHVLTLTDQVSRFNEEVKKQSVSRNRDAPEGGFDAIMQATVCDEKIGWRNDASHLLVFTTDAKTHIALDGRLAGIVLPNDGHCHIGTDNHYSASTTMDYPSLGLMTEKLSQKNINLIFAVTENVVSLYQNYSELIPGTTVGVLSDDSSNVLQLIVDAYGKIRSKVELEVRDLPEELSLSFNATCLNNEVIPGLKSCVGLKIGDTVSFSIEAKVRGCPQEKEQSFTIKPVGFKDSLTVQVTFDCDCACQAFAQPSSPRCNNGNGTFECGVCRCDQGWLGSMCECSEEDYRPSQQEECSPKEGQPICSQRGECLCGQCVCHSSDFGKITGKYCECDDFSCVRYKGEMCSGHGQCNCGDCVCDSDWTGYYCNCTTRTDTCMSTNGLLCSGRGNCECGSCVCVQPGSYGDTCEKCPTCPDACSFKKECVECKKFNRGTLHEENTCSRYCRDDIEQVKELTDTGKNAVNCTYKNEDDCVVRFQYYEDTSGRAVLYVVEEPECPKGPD

Kd: 830 µM
Substance: RGD-mutated mouse ICOSL protein (RGD motif replaced with AAA) (from UniProt Q9JHJ8 44-322) (ligand)
